Measured values as given in the DeepSol protein solubility set.

Experiment: soluble on expression in E. coli; label from the status in PepcDB or PDB records

Sequence | soluble on expression in E. coli
MKSEETQPFGITIEGVELSDGDVQFADKSLPLPFSTSIHTLSGEVSTLSSDSSEPARVKFEGEVAEYGLAQVNGTVHAWHPTRQTTINVRFRNLQIPEYSPYTVNFAGRKIADGTMDLDLDYTVNEEKLDGQNNLVLHDLKLGEKMESSDAMDLPLDLAIALLQDSDGLEHHHHHH | soluble
MQDLSAVKAFHALCQHKSLTAAAKALEQPKSTLSRRLAQLEEDLGQSLLMRQGNRLTLTKAGEVFAVYSEQLLELANKSQEALQELNNQVTGELTLVVHPNLIRGWLSQVLDEFMQQHSTLKIRLLSQFQHSDEVFEPDLIIWIEHAAPMGYRKERLGYWRYAAYASPKYLAHRDKPTHPRELIHHPWIDFIACRRAELELHHPEFGSYSLPALESRLQSDNLAMQADAIAKGRGIGLLPTWFANGFETAHPGSLIPCVNGWQSQPTEINCFYPLGRHPLRLRLFIDALRQARPDEWQ | not soluble
MFVFGAYWFDCGERAVLPANSRGALRPQCTRLRFWRGRYWHRGAVSALRRVRPLSASTPSPRVLDGSQSLADTPDNVQQLLQHMSQELDSVVQSMVHLEEYALEQVEKLKGAMEADLRKLALYEEEQAFAQKLTEQLQKKEGAVFEAMRHFLFHVVGLQEQTVAITNELQVLHEFVSENHERVELVLESLRERGLFGSRQDVFEGEVKKKLDRFDPEI | not soluble
MSLKVLVTGGAGYVGTELVLKLAKDPSISKVVVFDNLSRENYNLFINSAQRIAKDKIQFEFGDLLDSRKIRKILADIDVVYHLAARVSTPFANADSHLYEQVNHWGTAELVYAIEEIKTVQKLIYVSSCSVYGSGKELIDENSVVNPKTIYGVSKMRGEEHVSRLGNKMNAVIIRLGNVYGYSSSMRFDAVINKFMFESHYKNRISIHGNGRQSRSFIHVDKAVDSLVKITSTDIPSGTYNLTERNLEIYDLIDQVKDLYPTLEFIFINQHLELREQKINPETKLLKYIPLQQTDFTAELAAFRDHFTFQTTSEGHHHHHH | soluble
MKYRVETNPFSKDRYNPEQLEMFKNRQLSKDKAEVFFTRLYNQHIAWVIIANVMTEYVIKFRKSATSFEEAWDALDYQRTTEIVFRAVNGLPCSEKDSGELETYLSEEQHEKH | not soluble
MLTNQELTAKVKEISLTYFKQSFDHEAKWNQRLRTTGGRFFPKDLHLDFNPKMAELKDFEGVILHELTHYHLYRSKRGYKHRDADFKRLLSQVGGLRYAPSVIDKKIKYYYSCQNCGQLYPRQRKIDTKKYRCGKCRGKLILKTSGNLEHHHHHH | soluble
MVILLQFYKEENFKKTEIGEIPEDWEVRELKDILEVIRNGLTAKQNKDKIGYPITRIETISDSKIDITKLGYVEDIKQEDIAKYRLIIGDILFSHINSEEHIGKVAIYEGKPEFLLHGMNLLLLRPNKNKIEPYYLLYLLRHFKQKNIFKYIAKRAVNQSSINQTQLKHLKIPLPPLEEQKQIAKILSDFDNLIGTINKQIEVLNKAKKGMMKKLFTKGVFEHKSFKKSEIGEIPEDWEVVELGNEKYFKIIMGQSPPSSSYNKEGEGVPFLQGKAEFGNIYPNPVLYTNKPLKVVDDEDILISVRAPVGDVNIAPFKLCIGRGLAGIKSNKEKVDNFFVFYYLSYIKPKIEYLGGGAVFKAITKKDLESIKIPLPPLEEQKAIAKRLKAIDDLIEIKRKEKEQIEKAKKKIMNLLLTGKIRVKT | soluble
MSLSQSALSELLEAFRAGDGVDLICESVRVALQDLIQLEASERIGAAPYERTDARVSERNGHRPRVLTTKAGDVELRIPKLRKGSFFPVILEPRRRIDQALYAVVMEAYVHGVSTRSVDDLVEAMGVDAGISKSEVSRICAGLDEQVGAFRTRALDHTEFPYVYLDATYLNVRNTTGQVTSMAVVVATGIAADGSREVLGLDVGDSEDETFWRGFLTALKQRGLHGVQLVISDQHAGLVKALRRSFQGAGHQRCRVHFARNLLAHVPKSHGDMVAAVFRTIFAQPDAAAVSHAWDEVRDQLAKSFPKIGPLMDEAKAEVTAFTVFPRAHWQKIWSTNPLERSTRRSSDAPGWSGSEGHHHHHH | soluble
MGSDKIHHHHHHMSELTLLADADERGRRYLAGNAQRRVFPDADALSALARFNEALPQQGFSPEDTLTLLDEVGSPATTASNGPNYFGFVIGAALPIAAASERLMIAWDQCASTFDNSPVSATLERLASRWVLDILKLPKESAVGFGTSATACTLSCLVAARRAMLAKQGWDFDNDGLIGAPEIKVVISALTHITVKKALRVLGFGLRHIIVAPVNAFGQIDVTQLPPLDDRTILCLQAGEVNTGEFDDFAQIIPIAKAAGAWVHVDGAFGLWARASSHAALTESIELADSWTTDAHKWLNTPYDCAMAICRNADALAEAMNADAVYSSAARDAQKNLTLEFSRRPRGIPVWAVLRTLGRDGVAEMIERHCRQATLIADGLRHAGFEVLNRVVLNQVLLRGETDSQTTAIREALQASGKAWFGGTVWQGRPALRISVSSWRTQDDNVQALIALLTEIKAKTPR | not soluble
MNVLKEVYATIEKRIEEKPEGSYVAKLTTDDKKTAVNKICEKVGEEAAEVIIAAKDNDKAEIIYESADLIFHTMVLLAKSGITYEELSEEFKKRMKLEHHHHHH | not soluble
MTYTTAKAAEKIGISAHTLRFYDKEGLLPNIGRDEYGNRCFTDNDLQWLGLLQCLKNTGMSLKDIKRFAECTVIGDDTIEERLSLFENQIENVKCQIAELKRYLDLLEYKLAFYQKAKALGSVKAVNLPQIPETA | soluble
MGSDKIHHHHHHMLDENEDIHPLFAGAPATTEFKKLRKRIVRYTREAIEQYGMVERRADGSTPKWLVCLSGGKDSYTLLAVLYELKWRGLLPVDLLACNLDQGQPGFPSTVLPEFLDRMGVPNRIEYQDTYSVVVDKVPQGRTYCALCSRLRRGNLYRIAREEGCSAVVLGHHRDDILETFFMNLFHGGRLATMPPKLVNEEGDLFVFRPLAHVAEADCEKFARAMNYPIIPCDLCGSQDGLQRQQVKQILDGWEKNRPGRRQVMFRALMNARPSHLLDPKLFDFQGLELGSREKGENFGEIPLLR | not soluble
SLRKVGLTALEWLKQHPEIKQHKESSLYEQLFASQQWQQAQTIGMIRSLPLELSTQPIFERAMQESKQVAVPRTFKGGKMHFYQVFPETVYDTSAFGVEEPPLTAAEITATAIDLLIVPGIVFNRAGYRIGFGGGFYDRYLEHFSGHSCSLVFSEQLHEQWQPEAFDQPIEQLFIQ | soluble
MKAEYLQRFGGIARLYGQSALRSFSQAKVCVVGIGGVGSWAAEALARAGINQITLIDMDDICITNTNRQIHAMQGTVGRLKTEVMAERIRAINPDCEVIEVDDFVTADNLAEHIKREFDYVVDAIDSVKAKVALIAFCKRNKIPVIVAGGAGGQMDPTQITVADLAKTIQDPLAAKVRSDLRRLHNFSKNPARKFGVECVFSTEQLSYPDGNGGTCQAKAASDGNMKMDCASGFGAVTPVTATFGLVAASRVLKKIAERGARAEKEAGNEEAGSIGEA | soluble
MSLNAPKLVIGANGFLGSHVTRQLVADCAPQKGEVRAMVRPAANTRSIDDLPLTRFHGDVFDTATVAEAMAGCDDVYYCVVDTRAWLRDPSPLFRTNVAGLRNVLDVATDASLRRFVFTSSYATVGRRRGHVATEEDRVDTRKVTPYVRSRVAAEDLVLQYAHDAGLPAVAMCVSTTYGGGDWGRTPHGAFIAGAVFGRLPFTMRGIRLEAVGVDDAARALILAAERGRNGERYLISERMMPLQEVVRIAADEAGVPPPRWSISVPVLYALGALGSLRARLTGKDTELSLASVRMMRSEADVDHGKAVRELGWQPRPVEESIREAARFWAAMRTVGKDPAASEGHHHHHH | not soluble
MHHHHHHSSGVDLGTENLYFQSMPRARPGGNRVTVVLGAQWGDEGKGKVVDLLAQDADIVCRCQGGNNAGHTVVVDSVEYDFHLLPSGIINPNVTAFIGNGVVIHLPGLFEEAEKNVQKGKGLEGWEKRLIISDRAHIVFDFHQAADGIQEQQRQEQAGKNLGTTKKGIGPVYSSKAARSGLRMCDLVSDFDGFSERFKVLANQYKSIYPTLEIDIEGELQKLKGYMEKIKPMVRDGVYFLYEALHGPPKKILVEGANAALLDIDFGTYPFVTSSNCTVGGVCTGLGMPPQNVGEVYGVVKAYTTRVGIGAFPTEQDNEIGELLQTRGREFGVTTGRKRRCGWLDLVLLKYAHMINGFTALALTKLDILDMFTEIKVGVAYKLDGEIIPHIPANQEVLNKVEVQYKTLPGWNTDISNARAFKELPVNAQNYVRFIEDELQIPVKWIGVGKSRESMIQLF | soluble
MGSDKIHHHHHHMSKKQEEIAIKEQRLLSMMEENELEGICLSRAANFAWLTAGSNNRVVWGQETGAAALVIVEGRKFLVAPQNEIERLMLEQVADLGFEPWTYEWYEDRQQAIARLVGNKKIGSDIPLGNWPVIEAELKRLRFSLTDHEVERAEKLAAICSDDLAAVCQAIVPGWSEWNIQVELSNRLLKQGVRASVLLVGADDRTRFKHPLPTLNPVCNYVIIGLVGEQCGLHMALTRSIYFGRVPEALRQNYNCCLAVERTYWENSVVDADSQKVFQQGINAYADLGHPEEWKRHHQGGAIGYAPREFRAGEGRREVMQDRQMLAWNPTVENTKCEDTCLVTPTGLKSMTTVPSWWPTTTVKAGNINFLRPLILEK | not soluble
MGSDKIHHHHHHMENKLLVFLEAIQQHNSMTKAAQSLFISQPYISRTIKSAETHFGTPLIDRGHHPLELTYAGERLLTYLQSDARLHQRMNTELKEISQNKYQSMTIGITPPMANAWFSQTLPAFYQRFPNIRTKILEITTSKAETLLASHQLDFFIGKTIHQTNVKTIPLQTISLSLVIPKTAGIYQSNQFWRPFTPTILTGMTGEPVIRAVGEARFQELVDHYFADKGIQTIPLIEVDNSRFALSLTLQGLGSIVLATAMLARLATEPAKYPINAFKLPTSELSLDFSIAYLPSHVLAKPIAYLVEQACQTFNPAIDF | not soluble
MMITSVEKDTKNRGMLSVFIDEKYAFSIPEEDYFRLCLYDKKELSSDEIEEIKKGVSQRTAKYKAVKYLSYRYMTEAELSQKLRKDGYDEDVILNVVTELKSMGYINDLIYAQKYVYDRIKLKPKAKKMLKRELNQKGVSDEIADQVLSELDFDEDVVIERLIRKKFGKYDMKDPKIQKRIYSFLLHRGFDFENIKRVLRTITHLD | soluble
MAHHHHHHMEIKTASKIVRRVSNVEAFDKSGSVFKGYQIWTDISPTIENDPNIMFVKCVVQQGSKKEKLTVVQIDPPGTGTPYDIDPTHAWNCNSQVDPMSFGDIGLLNHTNIPCVLDFLKHRYLKNQIYTTAVPLIVAINPYKDLGNTTNEWIRRYRDTADHTKLPPHVFTCAREALSNLHGVNKSQTIIVSGESGAGKTEATKQIMRYFASSKSGNMDLRIQTAIMAANPVLEAFGNAKTIRNNNSSRFGRFMQLVISHEGGIRYGSVVAFLLEKSRIITQDDNERSYHIFYQFLKGANSTMKSKFGLKGVTEYKLLNPNSTEVSGVDDVKDFEEVIESLKNMELSESDIEVIFSIVAGILTLGNVRLIEKQEAGLSDAAAIMDEDMGVFNKACELMYLDPELIKREILIKVTVAGGTKIEGRWNKNDAEVLKSSLCKAMYEKLFLWIIRHLNSRIEPEGGFKTFMGMLDIFGFEVFKNNSLEQLFINITNEMLQKNFVDIVFERESKLYKDEGISTAELKYTSNKEVINVLCEKGKSVLSYLEDQCLAPGGTDEKFVSSCATNLKENNKFTPAKVASNKNFIIQHTIGPIQYCAESFLLKNKDVLRGDLVEVIKDSPNPIVQQLFEGQVIEKGKIAKGSLIGSQFLNQLTSLMNLINSTEPHFIRCIKPNENKKPLEWCEPKILIQLHALSILEALVLRQLGYSYRRTFEEFLYQYKFVDIAAAEDSSVENQNKCVNILKLSGLSESMYKIGKSMVFLKQEGAKILTKIQREKLVEWENCVSVIEAAILKHKYKQKVNKNIPSLLRVQAHIRKKMVA | not soluble
